Among the data in patent US20260116980A1 are EC50 (read off the curve) values, retold here.

As usually defined, the EC50 (read off the curve) is the concentration at which the effect is half-maximal. Read a high EC50 (read off the curve) as a need for much substance.

In the experiment the target is B7H3 on H358 tumor cells (UniProt Q5ZPR3). The experiment is described as follows: FACS on H358 cells, 1 h on ice, fluorescence-labelled anti-human Fc.
Chain of B7H3 on H358 tumor cells (Q5ZPR3 29-534): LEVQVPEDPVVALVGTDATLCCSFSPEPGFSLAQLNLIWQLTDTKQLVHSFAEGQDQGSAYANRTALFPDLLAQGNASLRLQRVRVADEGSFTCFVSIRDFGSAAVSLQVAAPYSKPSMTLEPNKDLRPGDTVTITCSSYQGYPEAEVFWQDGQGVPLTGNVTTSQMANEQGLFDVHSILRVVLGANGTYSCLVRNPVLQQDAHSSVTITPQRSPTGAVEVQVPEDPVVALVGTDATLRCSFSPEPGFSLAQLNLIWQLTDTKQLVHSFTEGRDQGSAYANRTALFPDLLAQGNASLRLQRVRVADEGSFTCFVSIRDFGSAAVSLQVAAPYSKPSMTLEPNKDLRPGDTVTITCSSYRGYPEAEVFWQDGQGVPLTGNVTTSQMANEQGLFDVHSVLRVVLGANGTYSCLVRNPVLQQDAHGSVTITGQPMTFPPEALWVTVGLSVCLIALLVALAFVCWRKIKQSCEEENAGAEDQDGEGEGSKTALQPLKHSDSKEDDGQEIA

Consider “MABX-9001a (a humanized anti-B7H3 IgG1 monoclonal antibody used for DS-7300a)”, for which the EC50 (read off the curve) worked out at 1 nM. This lies in the single-digit nanomolar range.
